Sequences and labels used below:
B1: equine IgG4 M428Y (antibody, part only; not given: variable domains, not shown: another chain or arm of the molecule)
constant: ASTTAPKVFPLASHSAATSGSTVALGCLVSSYFPEPVTVSWNSGALTSGVHTFPSVLQSSGLYSLSSMVTVPASSLKSQTYICNVAHPASSTKVDKKIVIKECNGGCPAECLQVGPSVFIFPPKPKDVLMISRTPTVTCVVVDVGHDFPDVQFNWYVDGVETHTATTEPKQEQFNSTYRVVSVLPIQHKDWLSGKEFKCKVNNKALPAPVERTISKPTGQPREPQVYVLAPHRDELSKNKVSVTCLVKDFYPTDIDIEWKSNGQPEPETKYSTTPAQLDSDGSYFLYSKLTVETNRWQQGTTFTCAVYHEALHNHYTEKSVSKSPGK
B2: equine IgG4 D312G (antibody, part only; not given: variable domains, not shown: another chain or arm of the molecule)
constant: B1 constant with D190G, Y308M
B3: equine IgG4 D312M (antibody, part only; not given: variable domains, not shown: another chain or arm of the molecule)
constant: B1 constant with D190M, Y308M
B4: equine IgG4 N434Y (antibody, part only; not given: variable domains, not shown: another chain or arm of the molecule)
constant: B1 constant with Y308M, N314Y
B5: equine IgG4 N434R (antibody, part only; not given: variable domains, not shown: another chain or arm of the molecule)
constant: B1 constant with Y308M, N314R
B6: equine IgG4 D312A (antibody, part only; not given: variable domains, not shown: another chain or arm of the molecule)
constant: B1 constant with D190A, Y308M
B7: equine IgG4 N434P (antibody, part only; not given: variable domains, not shown: another chain or arm of the molecule)
constant: B1 constant with Y308M, N314P
B8: equine IgG4 N434V (antibody, part only; not given: Variable domains, not shown: another chain or arm of the molecule)
constant: B1 constant with Y308M, N314V
B9: equine IgG4 D312E (antibody, part only; not given: variable domains, not shown: another chain or arm of the molecule)
constant: B1 constant with D190E, Y308M
B10: equine IgG4 N434M (antibody, part only; not given: variable domains, not shown: another chain or arm of the molecule)
constant: B1 constant with Y308M, N314M
B11: equine IgG4 N434D (antibody, part only; not given: Variable domains, not shown: another chain or arm of the molecule)
constant: B1 constant with Y308M, N314D
B12: equine IgG4 N434C (antibody, part only; not given: Variable domains, not shown: another chain or arm of the molecule)
constant: B1 constant with Y308M, N314C
B13: equine IgG4 N434S (antibody, part only; not given: variable domains, not shown: another chain or arm of the molecule)
constant: B1 constant with Y308M, N314S
B14: equine IgG4 N434F (antibody, part only; not given: variable domains, not shown: another chain or arm of the molecule)
constant: B1 constant with Y308M, N314F
B15: equine IgG4 N434L (antibody, part only; not given: variable domains, not shown: another chain or arm of the molecule)
constant: B1 constant with Y308M, N314L
B16: equine IgG4 N434W (antibody, part only; not given: variable domains, not shown: another chain or arm of the molecule)
constant: B1 constant with Y308M, N314W
B17: equine IgG4 N434I (antibody, part only; not given: variable domains, not shown: another chain or arm of the molecule)
constant: B1 constant with Y308M, N314I
B18: equine IgG4 N434K (antibody, part only; not given: variable domains, not shown: another chain or arm of the molecule)
constant: B1 constant with Y308M, N314K
B19: equine IgG4 N434Q (antibody, part only; not given: variable domains, not shown: another chain or arm of the molecule)
constant: B1 constant with Y308M, N314Q
B20: equine IgG4 N434T (antibody, part only; not given: variable domains, not shown: another chain or arm of the molecule)
constant: B1 constant with Y308M, N314T
B21: equine IgG4 D312I (antibody, part only; not given: Variable domains, not shown: another chain or arm of the molecule)
constant: B1 constant with D190I, Y308M
B22: equine IgG4 D312F (antibody, part only; not given: variable domains, not shown: another chain or arm of the molecule)
constant: B1 constant with D190F, Y308M
B23: equine IgG4 N434E (antibody, part only; not given: variable domains, not shown: another chain or arm of the molecule)
constant: B1 constant with Y308M, N314E
B24: equine IgG4 D312C (antibody, part only; not given: variable domains, not shown: another chain or arm of the molecule)
constant: B1 constant with D190C, Y308M
B25: equine IgG4 N434A (antibody, part only; not given: Variable domains, not shown: another chain or arm of the molecule)
constant: B1 constant with Y308M, N314A
B26: equine IgG4 D312L (antibody, part only; not given: variable domains, not shown: another chain or arm of the molecule)
constant: B1 constant with D190L, Y308M
B27: equine IgG4 D312K (antibody, part only; not given: variable domains, not shown: another chain or arm of the molecule)
constant: B1 constant with D190K, Y308M
B28: equine IgG4 D312H (antibody, part only; not given: Variable domains, not shown: another chain or arm of the molecule)
constant: B1 constant with D190H, Y308M
B29: equine IgG4 N434G (antibody, part only; not given: variable domains, not shown: another chain or arm of the molecule)
constant: B1 constant with Y308M, N314G
B30: equine IgG4 D312N (antibody, part only; not given: variable domains, not shown: another chain or arm of the molecule)
constant: B1 constant with D190N, Y308M
B31: equine IgG4 N434H (antibody, part only; not given: Variable domains, not shown: another chain or arm of the molecule)
constant: B1 constant with Y308M, N314H
B32: equine IgG1 T286P (antibody, part only; not given: variable domains, not shown: another chain or arm of the molecule)
constant: ASTTAPKVFALAPGCGTTSDSTVALGCLVSGYFPEPVKVSWNSGSLTSGVHTFPSVLQSSGFYSLSSMVTVPASTWTSETYICNVVHAASNFKVDKRIEPIPDNHQKVCDMSKCPKCPAPELLGGPSVFIFPPNPKDTLMITRTPEVTCVVVDVSQENPDVKFNWYMDGVEVRPATTRPKEEQFNSTYRVVSVLRIQHQDWLSGKEFKCKVNNQALPQPIERTITKTKGRSQEPQVYVLAPHPDELSKSKVSVTCLVKDFYPPEINIEWQSNGQPELETKYSTTQAQQDSDGSYFLYSKLSVDRNRWQQGTTFTCGVMHEALHNHYTQKNVSKNPGK
B33: equine IgG1 T286Q (antibody, part only; not given: variable domains, not shown: another chain or arm of the molecule)
constant: B32 constant with P174Q
B34: equine IgG1 M252A (antibody, part only; not given: variable domains, not shown: another chain or arm of the molecule)
constant: B32 constant with M140A, P174T
B35: equine IgG1 T286R (antibody, part only; not given: variable domains, not shown: another chain or arm of the molecule)
constant: B32 constant with P174R
B36: equine IgG1 T286S (antibody, part only; not given: Variable domains, not shown: another chain or arm of the molecule)
constant: B32 constant with P174S

Numbering of substitutions follows the chain as printed. In names and notes the source's numbering stands.

The results in this text go back to US20260070987A1.

This assay has as its target equine FcRn (large alpha subunit p51) / equine beta-2-microglobulin complex, biotinylated (equine) (UniProt P30441). Briefly: SPR (Biacore), pH 6. For orientation: In SPR one partner is held on a chip, and binding of the other changes the refractive index at the surface.
Sequence of UniProt P30441 (P30441 21-118, one chain of several): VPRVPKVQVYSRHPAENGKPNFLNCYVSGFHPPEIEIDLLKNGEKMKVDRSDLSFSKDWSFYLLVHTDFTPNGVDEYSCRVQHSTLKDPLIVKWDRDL
Regarding B1, the Kd stood at 30.8 nM.

In the case of B2, the Kd turned out to be 11.2 nM.

For the molecule B3, the Kd is 25 nM.

Molecule B4 had a dissociation constant (Kd) of 4.6 nM.

On to B5, for which the Kd was 22.7 nM.

The molecule B6 yielded a Kd of 13.1 nM.

Take B7: the equilibrium dissociation constant (Kd) was found to be 39.4 nM.

Take B8: the dissociation constant Kd was 32.6 nM.

In the case of B9, the Kd turned out to be 50.2 nM.

Regarding B10, the Kd was determined as 43.4 nM.

The molecule B11 showed a Kd of 38.5 nM.

B12 displayed a Kd of 113 nM.

B13 showed a Kd of 23.8 nM.

Regarding B14, the Kd was determined as 4.4 nM.

In turn, B15 registered a dissociation constant Kd of 48.5 nM.

Molecule B16 showed a Kd of 1.6 nM.

B17 came in with an equilibrium dissociation constant (Kd) of 40.6 nM.

B18 displayed a dissociation constant (Kd) of 42.8 nM.

Molecule B19 had a Kd of 17.7 nM.

Turning to B20, the Kd was 57.5 nM.

With B21, the Kd came to 29.4 nM.

As for B22, the equilibrium dissociation constant (Kd) worked out at 23 nM.

On to B23, for which the Kd stood at 71.3 nM.

In the case of B24, the Kd came out at 27.1 nM.

Take B25: the Kd was found to be 17.4 nM.

Molecule B26 yielded a dissociation constant Kd of 11.6 nM.

In turn, B27 showed a Kd of 13.6 nM.

As for B28, the dissociation constant (Kd) came out at 20.2 nM.

B29 gave a Kd of 21.2 nM.

As for B30, the Kd was 16.1 nM.

B31: the Kd came to 5.2 nM.

Take B32: the Kd came to 14.6 nM.

As to B33, the Kd worked out at 17 nM.

For the molecule B34, the Kd was 50.3 nM.

On to B35, for which the Kd is 20.5 nM.

In the case of B36, the Kd was determined as 13.1 nM.

The term Kd denotes a measure of binding affinity in units of concentration. Read a low Kd as a tighter complex.
